Experimental data as given in publication PMC2199621 (The Journal of Cell Biology, 2001).

B1: GST-tagged Nup62 (natural protein, UniProt P17955 1-525, looked up)
chain: MSGFNFGGTGAPAGGFTFGTAKTATTTPATGFSFSASGTGTGGFNFGTPSQPAATTPSTSLFSLATQTSTTQTPGFNFGTTPASGGTGFSLGISTPKLSLSSTAATPATANTGSFGLGSSTLTNAISGASTSSQGTAPTGFVFGSSTTSAPSTGTTGFSFTSGSASQPGASGFNIGSVGSLAQPTALSGSPFTPATLATTTAGATQPAAATPTAATTSAGSTLFASIAAAPASSSTTVLSLSAPATTAATPTAGTLGFSLKAPGAAPGASTTSTTTTTTTTTTTASTSSSTTTTGFALSLKPLVPAGPSSVAATALPASSTAVGTTTGPAMTYAQLESLINKWSLELEDQERHFLQQATQVNAWDRTLIENGEKITSLHREVEKVKLDQKRLDQELDFILSQQKELEDLLSPLEESVKEQSGTIYLQHADEEREKTYKLAENIDAQLKRMAQDLKDIIEHLNMAGGPADTSDPLQQICKILNAHMDSLQWVDQSSALLQRRVEEASRVCESRRKEQERSLRIAFD
B2: 6× his–tagged COOH-terminal segment of human Nup153 comprising amino acids 609–1475 (domain or fragment, UniProt P49790 609-1475, looked up)
chain: LDILKSPGFASPKIDSVAAQPTATSPVVYTRPAISSFSSSGIGFGESLKAGSSWQCDTCLLQNKVTDNKCIACQAAKLSPRDTAKQTGIETPNKSGKTTLSASGTGFGDKFKPVIGTWDCDTCLVQNKPEAIKCVACETPKPGTCVKRALTLTVVSESAETMTASSSSCTVTTGTLGFGDKFKRPIGSWECSVCCVSNNAEDNKCVSCMSEKPGSSVPASSSSTVPVSLPSGGSLGLEKFKKPEGSWDCELCLVQNKADSTKCLACESAKPGTKSGFKGFDTSSSSSNSAASSSFKFGVSSSSSGPSQTLTSTGNFKFGDQGGFKIGVSSDSGSINPMSEGFKFSKPIGDFKFGVSSESKPEEVKKDSKNDNFKFGLSSGLSNPVSLTPFQFGVSNLGQEEKKEELPKSSSAGFSFGTGVINSTPAPANTIVTSENKSSFNLGTIETKSASVAPFTCKTSEAKKEEMPATKGGFSFGNVEPASLPSASVFVLGRTEEKQQEPVTSTSLVFGKKADNEEPKCQPVFSFGNSEQTKDENSSKSTFSFSMTKPSEKESEQPAKATFAFGAQTSTTADQGAAKPVFSFLNNSSSSSSTPATSAGGGIFGSSTSSSNPPVATFVFGQSSNPVSSSAFGNTAESSTSQSLLFSQDSKLATTSSTGTAVTPFVFGPGASSNNTTTSGFGFGATTTSSSAGSSFVFGTGPSAPSASPAFGANQTPTFGQSQGASQPNPPGFGSISSSTALFPTGSQPAPPTFGTVSSSSQPPVFGQQPSQSAFGSGTTPNSSSAFQFGSSTTNFNFTNNSPSGVFTFGANSSTPAASAQPSGSGGFPFNQSPAAFTVGSNGKNVFSSSGTSFSGRKIKTAVRRRK
B3: GST-tagged Nup58 (natural protein, UniProt P70581 1-585, looked up)
chain: MATGFSFGSGTLGSTTVAPGGTGTGSGFSFGASSTPSVGLNFGTLGSSATPASTSTSASGFGTGLFGSKPGTGFTLGGTSAGTTATTSASTTGFSLGFSKPAASATPFALPVTSTTASGLTLSSALTSAPAASTGFTLNNLGATPATTTAASTGLSLGGALAGLGGSLFQSGNTATSGLGQNALSLSLGTATPTSAASSEGLGGIDFSTSSDKKSDKTGTRPEDSKALKDENLPPVICQDVENLQKFVKEQKQVQEEISRMSSKAMLKVQEDIKALKQLLSLAASGLQRNTLNIDKLKLETAQELKNAEIALRTQKTPPGLQHENTAPADYFRVLVQQFEVQLQQYRQQIEELENHLATQANNSHITPQDLSMAMQKIYQTFVALAAQLQSIHENVKVLKEQYLSYRKMFLGDAGDVFEARRTEAKKWQNAPRVTTGPTPFSTMPNAAAVAMAATLTQQQQPATGPQPSLGVSFGTPFGSGIGTGLQSSGLGSSNLGGFGTSSGFGCGTTGASTFGFGTTDKPSGSLSAGFGSSSTSGFNFSNPGITASAGLTFGVSNPASAGFGTGGQLLQLKRPPAGNKRGKR
B4: Nup358-4 (amino acids 2500–3224) (domain or fragment, UniProt P49792 2500-3224, looked up)
chain: TSETTPKAVVSPPKFVFGSESVKSIFSSEKSKPFAFGNSSATGSLFGFSFNAPLKSNNSETSSVAQSGSESKVEPKKCELSKNSDIEQSSDSKVKNLFASFPTEESSINYTFKTPEKAKEKKKPEDSPSDDDVLIVYELTPTAEQKALATKLKLPPTFFCYKNRPDYVSEEEEDDEDFETAVKKLNGKLYLDGSEKCRPLEENTADNEKECIIVWEKKPTVEEKAKADTLKLPPTFFCGVCSDTDEDNGNGEDFQSELQKVQEAQKSQTEEITSTTDSVYTGGTEVMVPSFCKSEEPDSITKSISSPSVSSETMDKPVDLSTRKEIDTDSTSQGESKIVSFGFGSSTGLSFADLASSNSGDFAFGSKDKNFQWANTGAAVFGTQSVGTQSAGKVGEDEDGSDEEVVHNEDIHFEPIVSLPEVEVKSGEEDEEILFKERAKLYRWDRDVSQWKERGVGDIKILWHTMKNYYRILMRRDQVFKVCANHVITKTMELKPLNVSNNALVWTASDYADGEAKVEQLAVRFKTKEVADCFKKTFEECQQNLMKLQKGHVSLAAELSKETNPVVFFDVCADGEPLGRITMELFSNIVPRTAENFRALCTGEKGFGFKNSIFHRVIPDFVCQGGDITKHDGTGGQSIYGDKFEDENFDVKHTGPGLLSMANQGQNTNNSQFVITLKKAEHLDFKHVVFGFVKDGMDTVKKIESFGSPKGSVCRRITITECGQI
B5: GST-tagged Nup54 (natural protein, UniProt P70582 1-510, looked up)
chain: MAFNFGAPSGTSGTSTATAAPAGGFGGFGTTTTTAGSAFSFSAPTNTGSTGLLGGTQNKGFGFGTGFGTSTGTGTGLGTGLGTGLGFGGFNTQQQQQQQQTSLGGLFSQPAQAPAQSNQLINTASALSAPTLLGDERDAILAKWNQLQAFWGTGKGYFNNNIPPVEFTQENPFCRFKAVGYSCMPNNKDEDGLVVLIFNKKETDIRSQQQQLVESLHKVLGGNQTLTVNVEGIKTLPDDQTEVVIYIVERSPNGTSRRVPATTLYAHFEQANIKTQLQQLGVTLSMTRTELSPAQIKQLLQNPPAGVDPIIWEQAKVDNPDSEKLIPVPMVGFKELLRRLKVQDQMTKQHQTRLDIISEDISELQKNQTTTMAKIAQYKRKLMDLSHRTLQVLIKQEIQRKSGYAIQAEEEQLRVQLDTIQGELNAPTQFKGRLNELMSQIRMQNHFGAVKSEEKYYIDADLLREIKQHLKQQQEGLSHLISIIKDDLEDIKLVEHGLNETIHSRGGVFS

These binders were tested against 6× his-S–tagged importin β (UniProt Q14974 1-876) (assay: ELISA).
Chain of 6× his-S–tagged importin β (Q14974 whole entry): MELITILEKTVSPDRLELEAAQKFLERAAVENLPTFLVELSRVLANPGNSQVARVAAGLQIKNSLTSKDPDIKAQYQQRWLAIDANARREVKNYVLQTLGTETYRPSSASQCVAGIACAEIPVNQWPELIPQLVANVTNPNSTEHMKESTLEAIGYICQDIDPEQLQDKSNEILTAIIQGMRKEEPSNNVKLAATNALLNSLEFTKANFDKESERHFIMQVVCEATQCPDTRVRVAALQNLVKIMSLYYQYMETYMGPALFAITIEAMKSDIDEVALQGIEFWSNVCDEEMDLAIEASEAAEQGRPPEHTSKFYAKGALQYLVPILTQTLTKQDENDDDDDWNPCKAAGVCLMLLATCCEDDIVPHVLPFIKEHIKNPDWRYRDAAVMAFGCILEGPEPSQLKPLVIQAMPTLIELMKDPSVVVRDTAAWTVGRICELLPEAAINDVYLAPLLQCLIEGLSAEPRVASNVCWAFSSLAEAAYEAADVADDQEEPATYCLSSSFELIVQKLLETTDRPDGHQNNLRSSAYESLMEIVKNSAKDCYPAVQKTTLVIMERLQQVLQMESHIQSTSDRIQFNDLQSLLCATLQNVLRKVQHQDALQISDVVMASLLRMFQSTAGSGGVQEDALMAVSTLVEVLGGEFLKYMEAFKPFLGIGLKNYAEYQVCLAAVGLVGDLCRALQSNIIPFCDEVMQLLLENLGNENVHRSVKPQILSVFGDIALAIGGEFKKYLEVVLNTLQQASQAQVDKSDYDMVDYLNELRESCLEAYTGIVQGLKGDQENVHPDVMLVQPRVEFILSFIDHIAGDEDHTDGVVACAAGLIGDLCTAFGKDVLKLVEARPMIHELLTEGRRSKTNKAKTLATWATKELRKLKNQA

| Binder | Kd |
| --- | --- |
| B1 | 100 ± 8 nM |
| B2 | 9 ± 2.5 nM |
| B3 | 101 ± 2 nM |
| B4 | 225 ± 14.4 nM |
| B5 | 112 ± 6.5 nM |

What follows are binders tested against importin β–IBB domain complex (UniProt Q14974 1-876; P52292 2-60) (assay: ELISA).
Chain of importin β–IBB domain complex (Q14974 whole entry, chain 1 of 2, other chains not shown, the tested form may be a part): as the sequence (Q14974 whole entry) above

| Binder | Kd |
| --- | --- |
| B1 | 105 ± 6 nM |
| B2 | 9.4 ± 3 nM |
| B3 | 107 ± 8 nM |
| B4 | 220 ± 16 nM |
| B5 | 108 ± 8.5 nM |
